Test results as given in CN115819596A.

Target: 食蟹猴CEACAM6蛋白 (cynomolgus CEACAM6 protein) (cynomolgus monkey)
Experiment: ELISA, plate-coated cynomolgus CEACAM6 protein

B1: UM05-L9 (antibody, human IgG1, kappa, V domains shown)
VH: QVQLQQSGPELVRPGVSVKISCKGSGYTFTDYAMHWVKQSHAKSLEWIGVISTYSGHTNYNQKFKGKAIMTVDKSSSTAYMDLARLTSEDSAIYYCVRGSTTAHYYTMDFWGQGTSVTVSS
VL: DIQMTQSPVSLSASVGETVTITCGASENIYGTLNWYQRKQGKSPQLLIYGATNLADGVSSRFSGSGSGRQYSLKISSLHPDDVATYYCQNVLSIPYTFGGGTKLEIKR
EC50: 0.463 nM
